Measured values reported in patent US20200299408A1 (Genentech, published 2020).
Changes are numbered by the printed parent chain. Numbers in names are those of the source. Where “and” joins values, the source holds several entries; their conditions need not be identical. Identical values can stand only once. Like-named read-outs stand apart in the source and are kept apart here. Values belong to the binder of their own block, whether it stands above or below them.

Legend:
[1] = target: T1, commercial CD3ε (Creative Biomart, Catalog Number CD3E-2194H) (human, UniProt P07766); assay: binding affinity on commercial CD3ε (Creative Biomart CD3E-2194H); method not stated in the legend
T1 construct: commercial recombinant protein; also called commercial CD3E

[2] = target: T2, single chain human CD3ε-26mer-CD3γ (CD3εγ) (human); assay: Biacore, human CD3εγ on chip, TDB in flow through
T2 construct: also called human CD3εγ
T2 chain: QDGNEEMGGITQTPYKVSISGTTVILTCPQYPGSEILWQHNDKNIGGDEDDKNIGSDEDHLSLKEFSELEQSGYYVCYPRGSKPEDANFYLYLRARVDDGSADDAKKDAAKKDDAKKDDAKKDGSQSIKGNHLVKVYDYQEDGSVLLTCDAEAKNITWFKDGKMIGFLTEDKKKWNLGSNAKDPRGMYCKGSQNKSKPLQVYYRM
Description: (§1) Binding affinities for the each of the CD3/CD20 TDBs were tested by Biacore or FACS analysis, as described above for the anti-CD3 antibodies. Briefly, for Biacore binding assays, human CD3εγ was immobilized on Biacore Series S CM5 sensor chip using the amine coupling kit from Biacore and CD3/CD20 TDBs or Fab variants thereof were in the flow through. For FACS binding assays, either Bjab cells (for B cell antigens) or Jurkat cells (for CD3 antigen) were incubated with various concentrations of TDB antibodies at 4° C. for 30 minutes, then cells were washed and incubated with 2nd antibody (anti-huIgG-PE; BD Bioscience) for another 15 minutes, before cells were washed again and ready for FACS analysis.

human CD3 on T cells [3] = target: T3, human CD3 on T cells (human, UniProt P07766 22-207); assay: FACS on Jurkat cells (CD3); EC50 table for the curves of FIGS. 21A-21B; source CHO (N297G)
T3 construct: whole, on cells; On cells CD3ε stands in the CD3/TCR complex; also called CD3 antigen; CD3ε
Description: as §1

human CD3 on T cells [4] = target: T3, human CD3 on T cells; assay: FACS on Jurkat cells (CD3), anti-huIgG-PE; number printed beside the curve without a quantity name, taken as EC50
Description: as §1

[5] = target: T2, single chain human CD3ε-26mer-CD3γ …; assay: Biacore single cycle kinetics; KD relative to hu38E4.v1
Excerpt: (§2) In addition, position 95 in HVR-H3 was also mutated to serine, threonine, or glutamate. Variants with these single point mutations were expressed as Fabs in HEK293 cells and initially screened with a single cycle kinetics method on a Biacore T100. Selected variants were also scaled up and purified for a conventional multi-cycle kinetics method. For single cycle kinetics, Biacore Series S CM5 sensor chips were immobilized with anti-human Fab antibodies (Human Fab capture kit, GE Healthcare). […] For conventional multi-cycle kinetics, human CD3εγ, cyno CD3εγ, or a 27-mer peptide were immobilized on Biacore Series S CM5 sensor chip using the amine coupling kit from Biacore. Serial 3-fold dilutions of each Fab variant were injected at a flow rate of 30 μl/min. Each sample was analyzed with a protocol of 3-minute association and 3-minute dissociation. In both methods, the Biacore chips were regenerated using 10 mM Glycine (pH 1.7). Binding response was corrected by blank subtraction and a 1:1Languir model of simultaneous fitting of kₒₙ and koff was used for kinetics analysis.

[6] = target: T2, single chain human CD3ε-26mer-CD3γ …; assay: Biacore single cycle kinetics: Fab captured by anti-human Fab, human CD3εγ injected (3-250 nM)
Excerpt: as §2

human CD3 on T cells [7] = target: T3, human CD3 on T cells; assay: FACS on Jurkat cells (CD3), anti-huIgG-PE; number printed beside the curve without a quantity name, taken as EC50; remark: listed apart in the source
Description: as §1

[8] = target: T1, commercial CD3ε (Creative Biomart, …); assay: binding affinity on commercial CD3ε (Creative Biomart CD3E-2194H); method not stated in the legend; remark: listed apart in the source
[9] = target: T2, single chain human CD3ε-26mer-CD3γ …; assay: Biacore, monovalent KD of the CD3 arm; CD3 antigen not named on the sheet (reactivity hu, cyno)
Commercial hCD3eg = target: T4, Commercial hCD3eg; assay: mu IgG against commercial hCD3eg; method not stated on the sheet
T4 chain 1: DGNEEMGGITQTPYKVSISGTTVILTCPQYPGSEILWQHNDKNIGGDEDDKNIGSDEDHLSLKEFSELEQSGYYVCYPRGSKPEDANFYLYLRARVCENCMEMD
T4 chain 2: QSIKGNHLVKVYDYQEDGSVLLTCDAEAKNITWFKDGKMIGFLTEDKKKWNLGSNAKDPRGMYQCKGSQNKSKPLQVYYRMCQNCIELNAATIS

B1: humanized 40G5c variant: VH1 graft + V67A + I69L + R71A / K4 graft (antibody, V domains shown)
VH: EVQLVQSGAEVKKPGASVKVSCKASGYTFTNYYIHWVRQAPGQGLEWIGWIYPGDGNTKYNEKFKGRATLTADTSTSTAYLELSSLRSEDTAVYYCARDSYSNYYFDYWGQGTLVTVSS
VL: DIVMTQSPDSLAVSLGERATINCKSSQSLLNSRTRKNYLAWYQQKPGQPPKLLIYWASTRESGVPDRFSGSGSGTDFTLTISSLQAEDVAVYYCTQSFILRTFGQGTKVEIK
Kd [1]: 24 nM

B2: KH CD20 2H7v16/38E4v1 (bispecific antibody)
anti-CD20 arm heavy chain: EVQLVESGGGLVQPGGSLRLSCAASGYTFTSYNMHWVRQAPGKGLEWVGAIYPGNGDTSYNQKFKGRFTISVDKSKNTLYLQMNSLRAEDTAVYYCARVVYYSNSYWYFDVWGQGTLVTVSS
anti-CD20 arm light chain: DIQMTQSPSSLSASVGDRVTITCRASSSVSYMHWYQQKPGKAPKPLIYAPSNLASGVPSRFSGSGSGTDFTLTISSLQPEDFATYYCQQWSFNPPTFGQGTKVEIK
anti-CD3 arm heavy chain: B1 VH with Y27F, N31S, G54E, D55N, G56D, G66D, A68V, L70I, S100G, N103R
anti-CD3 arm light chain: B1 VL with P49S, A57T, E61K, T95K
notes: also called 38E4v1 CHO
Kd [2]: 1.28 nM and 1.3 nM | koff [2]: 0.00515 s⁻¹ | kon [2]: 4.03e+06 M⁻¹ s⁻¹ | EC50 (human CD3 on T cells [3]): 0.24 µg/mL and ~1.6 nM | EC50 (human CD3 on T cells [4]): 0.243 µg/mL and 1.6 nM

B5: hu38E4.v1 H3 mutant D101A (Fab, V domains shown)
VH: EVQLVQSGAEVKKPGASVKVSCKASGFTFTSYYIHWVRQAPGQGLEWIGWIYPENDNTKYNEKFKDRVTITADTSTSTAYLELSSLRSEDTAVYYCARDGYSRYYFAYWGQGTLVTVSS
VL: B1 VL with P49S, A57T, E61K, T95K
notes: copies: 1 + 1
ratio (fold) [5]: 7.2 fold | Kd [6]: 24.1 nM | koff [6]: 0.00342 s⁻¹ | kon [6]: 142000 M⁻¹ s⁻¹

B8: KH CD20 2H7v16/hu38E4c (bispecific antibody)
anti-CD20 arm heavy chain: B2 anti-CD20 arm heavy chain
anti-CD20 arm light chain: B2 anti-CD20 arm light chain
anti-CD3 arm heavy chain: B5 VH with G100S, R103N, A107D
anti-CD3 arm light chain: B1 VL with P49S, A57T, E61K
notes: also called CD3/CD20 TDB 2H7v16/38E4c
EC50 (human CD3 on T cells [7]): 1.01 µg/mL

B11: KH CD20 2H7v16/SP34v52 (bispecific antibody, V domains shown)
VH 1: B2 anti-CD20 arm heavy chain
VL 1: B2 anti-CD20 arm light chain
VH 2: EVQLVESGGGLVQPGGSLRLSCAASGFTFNTYAMNWVRQAPGKGLEWVARIRSKYNNYATYYADSVKDRFTISRDDSKNTLYLQMNSLRAEDTAVYYCVRHGNFGNSYVSWFAYWGQGTLVTVSS
VL 2: EAVVTQEPSLTVSPGGTVTLTCRSSTGAVTTSNYANWVQQKPGQAPRGLIGGTNKRAPWTPARFSGSLLGGKAALTLSGAQPEDEAEYYCALWYSNLWVFGGGTKLTVL
modifications: Knob-into-hole full-length IgG; constant regions are not in the letters.
notes: full-length knob-into-hole human IgG1 TDB; also called CD3/CD20 TDB 2H7v16/SP34v52
EC50 (human CD3 on T cells [7]): 1.11 µg/mL | EC50 (human CD3 on T cells [4]): 0.6 µg/mL and 4 nM

B14: 30A1 (antibody, IgG1, V domains shown)
VH: QVQLKESGPGLVAPSQSLSITCTVSGFSLTNYAIHWVRQPPGKGLDWLGVIWAGGNTKYNSALMSRLSFSKDNSKSQVFLEINSLQTDDTAMYYCAREDSSGYVALDYWGQGTSVTVSS
VL: NIVMTQSPSSLAVSAGEKVTMSCKSSQSLLSGRTRKNYLAWYQQKPGQSPKLLIYWASTRESGVPDRFTGSGSGTDFTLTISSVQAEDLAVYYCKQSYYLLTFGAGTKLELK
notes: mouse hybridoma clone
Kd (Commercial hCD3eg): 0.4 nM

B15: 72H6 (antibody, IgG2a, V domains shown)
VH: EVQLQQSGPELVKPGASVKISCKASGYSFTSYYIHWVKQRPGQGLEWIGWIFPGSDNTKYNEKFKGKATLTADTSSSTAYMQLSSLTSEDSAVYFCARNGNYAMDYWGQGTSVTVSS
VL: B14 VL with N1E, M4L, T5S, S31N, G32S, Y99T, L101R, A105G, L111I
notes: mouse hybridoma clone; also called 72H6 (xCD3)
Kd (Commercial hCD3eg): 2.5 nM

B16: 13A3 (antibody, IgG2b, V domains shown)
VH: EVQLQQSGPELVKPGASVRISCKASGYTFTSYYIHWMKQRPGQGLEWIGWIYPGNVNTKYNEKFKGKATLTADNSSSTANMQLSSLTSEDSAVYFCARNHDYYFDYWGQGTTLTVSS
VL: B14 VL with N1D, M4L, S31N, G32S, Y99I, L101R, A105G, L111I
notes: mouse hybridoma clone; also called 13A3 (xCD3)
Kd (Commercial hCD3eg): 0.6 nM

B17: 19B1 (antibody, IgG2b, V domains shown)
VH: B16 VH
VL: B14 VL with N1G, S31N, G32S, Y99I, L101R, A105G, L111I
notes: mouse hybridoma clone; also called 19B1 (xCD3)
Kd (Commercial hCD3eg): 0.7 nM

The remaining lines, values ahead:

ratio (fold) [5]: 0.7 fold | Kd [6]: 2.4 nM | koff [6]: 0.00102 s⁻¹ | kon [6]: 428000 M⁻¹ s⁻¹
B3: hu38E4.v1 L3 mutant K89A (Fab, V domains shown)
VH: B5 VH with A107D
VL: B1 VL with P49S, A57T, E61K, T95A
notes: copies: 1 + 1

ratio (fold) [5]: 1.2 fold | Kd [6]: 4.1 nM | koff [6]: 0.00132 s⁻¹ | kon [6]: 322000 M⁻¹ s⁻¹
B4: hu38E4.v1 H3 mutant Y102A (Fab, V domains shown)
VH: B5 VH with A107D, Y108A
VL: B1 VL with P49S, A57T, E61K, T95K
notes: copies: 1 + 1

ratio (fold) [5]: 1.1 fold | Kd [6]: 3.8 nM | koff [6]: 0.00147 s⁻¹ | kon [6]: 385000 M⁻¹ s⁻¹
B6: hu38E4.v1 H3 mutant S98A (Fab, V domains shown)
VH: B5 VH with S102A, A107D
VL: B1 VL with P49S, A57T, E61K, T95K
notes: copies: 1 + 1

Kd [1]: 37 nM
B7: humanized 40G5c variant: VH1 graft + V67A + R71A / K4 graft (antibody, V domains shown)
VH: B1 VH with L70I
VL: B1 VL

Kd [1]: 36 nM
B9: humanized 40G5c variant: VH1 graft + I69L + R71A / K4 graft (antibody, V domains shown)
VH: B1 VH with A68V
VL: B1 VL

Kd [8]: 14.5 nM
B10: humanized SP34 variant: λ7 graft + F36V + T46G + Y49G / VH3 graft G49A + N73D + T93V (antibody, V domains shown)
VH: B11 VH 2
VL: B11 VL 2

Kd [9]: 1.9 nM
B12: murine SP34 (antibody, V domains shown)
VH: B11 VH 2 with G15K, R19K, K78Q, N79S, T80I, S87N, R89K, A90T, V95M
VL: QAVVTQESALTTSPGETVTLTCRSSTGAVTTSNYANWVQEKPDHLFTGLIGGTNKRAPGVPARFSGSLIGDKAALTITGAQTEDEAIYFCALWYSNLWVFGGGTKLTVL
notes: KD is printed as monovalent

Kd [9]: 0.75 nM
B13: murine 38E4 (antibody, V domains shown)
VH: QVQLQQSGPELVKPGASVTISCTASGFTFTSYYIHWVRQRPGQGLEWIGWIYPENDNTKYNEKFKDKATLTADTSSSTAYMQLSSLTSEDSAVYYCARDGYSRYYFDYWGQGTTLTVSS
VL: DIVMTQSPSFLAVSAGEKVTMSCKSSQSLLNSRTRKNYLAWYQQRPGQSPKLLIYWTSTRKSGVPDRFTGSGSGTDFTLTISSVQAEDLAIYYCKQSFILRTFGGGTKLEIK
notes: KD is printed as monovalent
